Measured values as given in patent CN115368463A (HEFEI TIANGANG IMMUNOLOGY PHARMACEUTICAL CO LTD, dated 2022).

Tests used:
CD27蛋白 = target: T1, CD27蛋白 (Homo sapiens (Human), UniProt P26842 20-260); test: flow cytometry on CHO-K1-CD27 cells, antibody at 0.1-300 μg/mL, Alexa-647 anti-human Fc secondary antibody
T1 construct: also called CHO-K1-CD27细胞; Jurkat-NFAT-lucia-CD27细胞
T1 sequence: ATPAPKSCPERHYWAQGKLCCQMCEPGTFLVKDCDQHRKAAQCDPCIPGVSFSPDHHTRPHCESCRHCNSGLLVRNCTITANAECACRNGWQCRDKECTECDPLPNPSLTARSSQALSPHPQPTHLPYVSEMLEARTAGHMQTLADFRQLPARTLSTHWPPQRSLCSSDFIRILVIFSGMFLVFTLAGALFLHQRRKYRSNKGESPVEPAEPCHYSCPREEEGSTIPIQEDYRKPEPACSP

Nectin-4蛋白 = target: T2, Nectin-4蛋白 (Homo sapiens (Human), UniProt Q96NY8 32-510); test: flow cytometry on CHO-K1-Nectin-4 cells, antibody at 0.1-300 μg/mL, Alexa-647 anti-human Fc secondary antibody
T2 construct: also called PVRL4; CHO-K1-Nectin-4细胞
T2 sequence: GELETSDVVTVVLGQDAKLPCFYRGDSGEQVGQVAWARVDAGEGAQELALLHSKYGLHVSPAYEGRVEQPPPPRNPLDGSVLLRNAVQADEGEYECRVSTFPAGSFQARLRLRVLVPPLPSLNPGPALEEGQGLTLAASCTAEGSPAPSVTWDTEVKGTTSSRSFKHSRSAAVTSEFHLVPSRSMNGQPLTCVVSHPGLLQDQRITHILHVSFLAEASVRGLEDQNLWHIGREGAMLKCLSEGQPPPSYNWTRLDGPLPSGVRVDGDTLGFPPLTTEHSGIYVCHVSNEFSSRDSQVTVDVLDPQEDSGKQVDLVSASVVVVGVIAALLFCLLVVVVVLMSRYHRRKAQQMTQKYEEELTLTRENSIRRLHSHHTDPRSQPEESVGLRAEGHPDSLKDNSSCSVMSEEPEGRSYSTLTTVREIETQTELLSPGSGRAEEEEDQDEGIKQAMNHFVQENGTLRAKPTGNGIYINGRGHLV

B1: 抗体CD27×Nectin-4 (bispecific antibody, human IgG1, kappa, L234A L235A)
scFv: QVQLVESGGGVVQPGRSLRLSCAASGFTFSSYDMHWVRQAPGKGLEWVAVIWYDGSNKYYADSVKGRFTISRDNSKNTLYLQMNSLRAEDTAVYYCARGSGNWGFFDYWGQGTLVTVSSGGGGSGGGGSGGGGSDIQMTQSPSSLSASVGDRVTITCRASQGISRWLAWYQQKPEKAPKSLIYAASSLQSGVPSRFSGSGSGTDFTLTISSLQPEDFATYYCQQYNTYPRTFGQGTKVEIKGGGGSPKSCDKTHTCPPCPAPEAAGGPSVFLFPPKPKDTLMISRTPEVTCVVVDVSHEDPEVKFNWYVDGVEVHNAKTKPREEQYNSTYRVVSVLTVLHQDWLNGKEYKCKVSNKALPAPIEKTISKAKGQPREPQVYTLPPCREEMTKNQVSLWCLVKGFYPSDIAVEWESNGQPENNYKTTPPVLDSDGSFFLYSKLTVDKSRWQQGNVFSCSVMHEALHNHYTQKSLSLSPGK
heavy: EVQLVESGGGLVQPGGSLRLSCAASGFTFSSYNMNWVRQAPGKGLEWVSYISSSSSTIYYADSVKGRFTISRDNAKNSLSLQMNSLRDEDTAVYYCARAYYYGMDVWGQGTTVTVSSASTKGPSVFPLAPSSKSTSGGTAALGCLVKDYFPEPVTVSWNSGALTSGVHTFPAVLQSSGLYSLSSVVTVPSSSLGTQTYICNVNHKPSNTKVDKKVEPKSCDKTHTCPPCPAPEAAGGPSVFLFPPKPKDTLMISRTPEVTCVVVDVSHEDPEVKFNWYVDGVEVHNAKTKPREEQYNSTYRVVSVLTVLHQDWLNGKEYKCKVSNKALPAPIEKTISKAKGQPREPQVCTLPPSREEMTKNQVSLSCAVKGFYPSDIAVEWESNGQPENNYKTTPPVLDSDGSFFLVSKLTVDKSRWQQGNVFSCSVMHEALHNHYTQKSLSLSPGK
light: DIQMTQSPSSVSASVGDRVTITCRASQGISGWLAWYQQKPGKAPKFLIYAASTLQSGVPSRFSGSGSGTDFTLTISSLQPEDFATYYCQQANSFPPTFGGGTKVEIKRTVAAPSVFIFPPSDEQLKSGTASVVCLLNNFYPREAKVQWKVDNALQSGNSQESVTEQDSKDSTYSLSSTLTLSKADYEKHKVYACEVTHQGLSSPVTKSFNRGEC
notes: also called CD27×Nectin-4抗体; CD27×Nectin-4双特异抗体
binding result (CD27蛋白): binds | binding result (Nectin-4蛋白): binds
